# Assays:
# HLA-C*01:02 = experiment: IEDB peptide-MHC binding, purified MHC/direct/fluorescence; filed as Kd, often an IC50 or EC50 that approximates it; ≥ and ≤ were set here for values at or beyond the usual limits of such assays; conditions: source organism: Homo sapiens
# HLA-A*24:02 [1] = experiment: IEDB peptide-MHC binding, cellular MHC/competitive/fluorescence; ≥ and ≤ were set here for values at or beyond the usual limits of such assays; conditions: source organism: Human herpesvirus 5 strain AD169
# HLA-B*40:13 = experiment: IEDB peptide-MHC binding, purified MHC/competitive/fluorescence; filed as Kd, often an IC50 or EC50 that approximates it; ≥ and ≤ were set here for values at or beyond the usual limits of such assays; conditions: source organism: Rickettsia felis URRWXCal2
# HLA-C*06:02 = experiment: as above; conditions: source organism: Rickettsia felis URRWXCal2
# HLA-B*45:06 = experiment: as above; conditions: source organism: Rickettsia felis URRWXCal2
# HLA-B*83:01 = experiment: as above; conditions: source organism: Rickettsia felis URRWXCal2
# HLA-B*27:20 = experiment: as above; conditions: source organism: Rickettsia felis URRWXCal2
# HLA-A*32:07 = experiment: as above; conditions: source organism: Rickettsia felis URRWXCal2
# HLA-B*15:02 = experiment: as above; conditions: source organism: Rickettsia felis URRWXCal2
# HLA-B*15:42 = experiment: as above; conditions: source organism: Rickettsia felis URRWXCal2
# HLA-A*32:15 = experiment: as above; conditions: source organism: Rickettsia felis URRWXCal2
# HLA-C*14:02 = experiment: as above; conditions: source organism: Rickettsia felis URRWXCal2
# HLA-B*46:01 = experiment: as above; conditions: source organism: Rickettsia felis URRWXCal2
# HLA-A*80:01 = experiment: IEDB peptide-MHC binding, purified MHC/direct/fluorescence; filed as Kd, often an IC50 or EC50 that approximates it; ≥ and ≤ were set here for values at or beyond the usual limits of such assays; conditions: source organism: Human immunodeficiency virus 1
# HLA-B*38:01 = experiment: IEDB peptide-MHC binding, purified MHC/competitive/fluorescence; filed as Kd, often an IC50 or EC50 that approximates it; ≥ and ≤ were set here for values at or beyond the usual limits of such assays; conditions: source organism: Human immunodeficiency virus 1
# HLA-B*08:01 [2] = experiment: as above; conditions: source organism: Human immunodeficiency virus 1
# HLA-A*30:01 = experiment: as above; conditions: source organism: Human immunodeficiency virus 1
# HLA-A*26:01 = experiment: as above; conditions: source organism: Human immunodeficiency virus 1
# HLA-B*57:01 = experiment: as above; conditions: source organism: Human immunodeficiency virus 1
# HLA-B*15:09 = experiment: as above; conditions: source organism: Human immunodeficiency virus 1
# HLA-A*01:01 [3] = experiment: as above; conditions: source organism: Human immunodeficiency virus 1
# HLA-B*15:17 = experiment: as above; conditions: source organism: Human immunodeficiency virus 1
# HLA-B*14:02 = experiment: IEDB peptide-MHC binding, purified MHC/competitive/fluorescence; ≥ and ≤ were set here for values at or beyond the usual limits of such assays; conditions: source organism: Homo sapiens
# HLA-B*18:01 = experiment: as above; conditions: source organism: Homo sapiens
# HLA-B*08:01 [4] = experiment: as above; conditions: source organism: Homo sapiens
# HLA-B*58:01 = experiment: as above; conditions: source organism: Homo sapiens
# HLA-A*68:02 = experiment: as above; conditions: source organism: Homo sapiens
# HLA-A*29:02 = experiment: as above; conditions: source organism: Homo sapiens
# HLA-A*31:01 = experiment: as above; conditions: source organism: Homo sapiens
# HLA-A*25:01 = experiment: as above; conditions: source organism: Homo sapiens
# HLA-A*11:01 = experiment: as above; conditions: source organism: Homo sapiens
# HLA-A*24:02 [5] = experiment: as above; conditions: source organism: Homo sapiens
# HLA-B*44:03 = experiment: as above; conditions: source organism: Homo sapiens
# HLA-B*37:01 = experiment: as above; conditions: source organism: Homo sapiens
# HLA-B*53:01 = experiment: as above; conditions: source organism: Homo sapiens
# HLA-B*51:01 = experiment: as above; conditions: source organism: Homo sapiens
# HLA-A*01:01 [6] = experiment: as above; conditions: source organism: Homo sapiens
# HLA-A*02:01 = experiment: as above; conditions: source organism: Homo sapiens
# HLA-B*07:02 = experiment: as above; conditions: source organism: Homo sapiens
# HLA-B*40:02 = experiment: as above; conditions: source organism: Homo sapiens
# HLA-A*03:01 = experiment: as above; conditions: source organism: Homo sapiens
# HLA-B*35:01 = experiment: as above; conditions: source organism: Homo sapiens
# HLA-A*01:01 [7] = experiment: IEDB peptide-MHC binding, purified MHC/competitive/radioactivity; ≥ and ≤ were set here for values at or beyond the usual limits of such assays; conditions: source organism: Human papillomavirus 16
sequence,measurement,setting,value
ELHDHGVSSL,Kd,HLA-C*01:02,3.9 nM
FFFDIDLLL,IC50,HLA-A*24:02 [1],≥ 333000 nM
FMYALSRAF,Kd,HLA-B*40:13,4.5 nM
same,Kd,HLA-C*06:02,64.5 nM
same,Kd,HLA-B*45:06,≥ 5000 nM
same,Kd,HLA-B*83:01,≥ 5000 nM
same,Kd,HLA-B*27:20,≤ 0.1 nM
same,Kd,HLA-A*32:07,493 nM
same,Kd,HLA-B*15:02,2.2 nM
same,Kd,HLA-B*15:42,≥ 5000 nM
same,Kd,HLA-A*32:15,27.7 nM
same,Kd,HLA-C*14:02,≤ 0.1 nM
same,Kd,HLA-B*46:01,6.6 nM
GTEEIRSLF,Kd,HLA-A*80:01,≥ 20000 nM
same,Kd,HLA-B*38:01,≥ 20000 nM
same,Kd,HLA-B*08:01 [2],≥ 20000 nM
same,Kd,HLA-A*30:01,11000 nM
same,Kd,HLA-A*26:01,≥ 20000 nM
same,Kd,HLA-B*57:01,347 nM
same,Kd,HLA-B*15:09,≥ 20000 nM
same,Kd,HLA-A*01:01 [3],≥ 20000 nM
same,Kd,HLA-B*15:17,223 nM
LPSCPTNFCIF,IC50,HLA-B*14:02,≥ 20000 nM
same,IC50,HLA-B*18:01,≥ 20000 nM
same,IC50,HLA-B*08:01 [4],≥ 20000 nM
same,IC50,HLA-B*58:01,≥ 20000 nM
same,IC50,HLA-A*68:02,≥ 20000 nM
same,IC50,HLA-A*29:02,≥ 20000 nM
same,IC50,HLA-A*31:01,≥ 20000 nM
same,IC50,HLA-A*25:01,≥ 20000 nM
same,IC50,HLA-A*11:01,≥ 20000 nM
same,IC50,HLA-A*24:02 [5],1110 nM
same,IC50,HLA-B*44:03,≥ 20000 nM
same,IC50,HLA-B*37:01,≥ 20000 nM
same,IC50,HLA-B*53:01,851 nM
same,IC50,HLA-B*51:01,≥ 20000 nM
same,IC50,HLA-A*01:01 [6],≥ 20000 nM
same,IC50,HLA-A*02:01,≥ 20000 nM
same,IC50,HLA-B*07:02,562 nM
same,IC50,HLA-B*40:02,≥ 20000 nM
same,IC50,HLA-A*03:01,≥ 20000 nM
same,IC50,HLA-B*35:01,47.7 nM
QVDYYGLYY,IC50,HLA-A*01:01 [7],18 nM
